Article PMC3902906

Columns and labels:
[1] = biological target: CsoR^Sl R129A (copper sensitive operon repressor from Streptomyces lividans, R129A mutant) (Streptomyces lividans 1326); assay: SEC; analytical gel filtration column, retention volume of the purified mutant protein alone; data not shown
[2] = biological target: CsoR (CsoRSl) wild type (Streptomyces lividans 1326) (UniProt D6EK73); assay: ITC; settings: ITC: 10 mM HEPES, 150 mM NaCl, pH 7.5, 25 C, 100 uM DNA into 10 uM CsoR tetramer, EMSA: same buffer, room temperature, 30 min, 6% PAGE in TBE, SEC: same buffer
[3] = biological target: CsoR^Sl R54A (copper sensitive operon repressor from Streptomyces lividans, R54A mutant) (Streptomyces lividans 1326); assay: SEC; analytical gel filtration column, retention volume of the purified mutant protein alone; data not shown
[4] = biological target: CsoR^Sl Q81A (copper sensitive operon repressor from Streptomyces lividans, Q81A mutant) (Streptomyces lividans 1326); assay: as above
[5] = biological target: CsoR^Sl R57A (copper sensitive operon repressor from Streptomyces lividans, R57A mutant) (Streptomyces lividans 1326); assay: as above
[6] = biological target: CsoR^Sl R132A (copper sensitive operon repressor from Streptomyces lividans, R132A mutant) (Streptomyces lividans 1326); assay: as above

Substance: CsoR^Sl R129A (copper sensitive operon repressor from Streptomyces lividans, R129A mutant) (natural protein)
- stoichiometry N [1]: 4

Substance: CGTTGGATACCCCCTAGGGGTATACATGG (double strand) [copZA1-GTA up]
- Kd [2]: 96 nM

Substance: CsoR^Sl R54A (copper sensitive operon repressor from Streptomyces lividans, R54A mutant) (natural protein)
- stoichiometry N [3]: 4

Substance: CsoR^Sl Q81A (copper sensitive operon repressor from Streptomyces lividans, Q81A mutant) (natural protein)
- stoichiometry N [4]: 4

Substance: CsoR^Sl R57A (copper sensitive operon repressor from Streptomyces lividans, R57A mutant) (natural protein)
- stoichiometry N [5]: 4

Substance: TACCCCCTAGGGGTAT (double strand) [copZA1-CON]
- Kd [2]: 971 nM

Substance: CGTTGGGTACCCCCTAGGGGTATACATGG (double strand) [copZA1-EXT]
- Kd ([2]; apo, reverse titration (protein into DNA), N 0.86): 112 nM

Substance: ATACCCCTGGTGGGTATAT (double strand) [csoR-CON]
- Kd [2]: 120 nM

Substance: CsoR^Sl R132A (copper sensitive operon repressor from Streptomyces lividans, R132A mutant) (natural protein)
- stoichiometry N [6]: 4

Substance: TATACCCCCTAGGGGTA (double strand) [copZA2-CON]
- Kd [2]: 107 nM

Substance: CGTTGGGTACCCCCTAGGGGTATATATGG (double strand) [copZA1-GTA down]
- Kd [2]: 87 nM

Substance: GCCTTTATACCCCCTAGGGGTAAGGTGGG (double strand) [copZA2-EXT]
- Kd [2]: 57 nM

Substance: CGGACAAATACCCCTGGTGGGTATATATGG (double strand) [csoR-EXT]
- Kd [2]: 74 nM
